{
  "source": "patent US20220098307A1",
  "about": "(WUHAN YZY BIOPHARMA, published 2022)",
  "key": {"[1]": {"target": "T1, Human CD3ε (human, UniProt P07766 23-126)", "T1 construct": "CD3 on T cells isolated from human whole blood", "assay": "flow cytometry, human T cells", "procedure,_shortened": "(§1)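 Mean fluorescence intensity by flow cytometry was plotted against antibody concentration; EC50 came from a one site–specific binding fit. Cells (2×10⁵/well) were incubated with 11-point, 3-fold antibody dilutions starting at 3000 nM for 2 h at 4° C, then with PE anti-human IgG Fc for 1 h.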"}, "[2]": {"target": "T2, Monkey CD3 (monkey)", "T2 construct": "whole, on cells; also called CD3 of monkey CD3 positive T cells", "assay": "flow cytometry, monkey T cells"}, "[3]": {"target": "T3, Human BCMA (human, UniProt Q02223 1-54)", "T3 sequence": "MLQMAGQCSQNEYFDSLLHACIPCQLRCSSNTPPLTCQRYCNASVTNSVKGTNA", "assay": "flow cytometry, human tumor cells (table of the BCMA series)", "procedure,_shortened": "as §1"}},
  "data": [
    {"binder": "M2IC-GG2 (bispecific antibody, human IgG1, kappa, structure 2 isotype control; CH2 GG2CH2) EVKLDETGGGLVQPGRPMKLSCVASGFTFSDYWMNWVRQSPEKGLEWVAQIRNKPYNYETYYSDSVKGRFTISRDDSKSSVYLQMNNLRVEDMGIYYCTGSYYGMDYWGQGTSVTVSSASTKGPSVFPLAPSSKSTSGGTAALGCLVKDYFPEPVTVSWNSGALTSGVHTFPAVLQSSGLYSLSSVVTVPSSSLGTQTYICNVNHKPSNTKVDKKVEPKSCDKTHTGGGSAAAQVQLVESGGGVVQPGRSLRLSCAASGFTFSTYAMNWVRQAPGKGLEWVARIRSKYNNYATYYADSVKDRFTISRDDSKNTLYLQMNSLRAEDTAVYYCARHGNFGNSYVSWFAYWGQGTLVTVSSGGGGSGGGGSGGGGSQTVVTQEPSLTVSPGGTVTLTCRSSTGAVTTSNYANWVQQKPGQAPRGLIGGTNKRAPGVPARFSGSLLGGKAALTLSGVQPEDEAEYYCALWYSNLWVFGGGTKVEIKGGGGSDKTHTCPPGPAPPVAGPSVFLFPPKPKDTLMISRTPEVTCVVVDVSHEDPEVQFNWYVDGVEVHNAKTKPREEQFNSTFRVVSVLTVVHQDWLNGKEYKCKVSNKGLPAPIEKTISKTKGQPREPQVYTLPPCRDELTKNQVSLWCLVKGFYPSDIAVEWESNGQPENNYKTTPPVLDSDGSFFLYSKLTVDKSRWQQGNVFSCSVMHEALHNHYTQKSLSLSPGK heavy: EVKLDETGGGLVQPGRPMKLSCVASGFTFSDYWMNWVRQSPEKGLEWVAQIRNKPYNYETYYSDSVKGRFTISRDDSKSSVYLQMNNLRVEDMGIYYCTGSYYGMDYWGQGTSVTVSSASTKGPSVFPLAPSSKSTSGGTAALGCLVKDYFPEPVTVSWNSGALTSGVHTFPAVLQSSGLYSLSSVVTVPSSSLGTQTYICNVNHKPSNTKVDKKVEPKSCDKTHTCPPGPAPPVAGPSVFLFPPKPKDTLMISRTPEVTCVVVDVSHEDPEVQFNWYVDGVEVHNAKTKPREEQFNSTFRVVSVLTVVHQDWLNGKEYKCKVSNKGLPAPIEKTISKTKGQPREPQVCTLPPSRDELTKNQVSLSCAVKGFYPSDIAVEWESNGQPENNYKTTPPVLDSDGSFFLVSKLTVDKSRWQQGNVFSCSVMHEALHNRFTQKSLSLSPGK light: DVVMTQTPLSLPVSLGDQASISCRSSQSLVHSNGNTYLRWYLQKPGQSPKVLIYKVSNRFSGVPDRFSGSGSGTDFTLKISRVEAEDLGVYFCSQSTHVPWTFGGGTKLEIKRTVAAPSVFIFPPSDEQLKSGTASVVCLLNNFYPREAKVQWKVDNALQSGNSQESVTEQDSKDSTYSLSSTLTLSKADYEKHKVYACEVTHQGLSSPVTKSFNRGEC", "values": [
      {"measurement": "EC50", "setting": "[1]", "result": 556, "unit": "nM"},
      {"measurement": "EC50", "setting": "[2]", "result": 538, "unit": "nM"},
      {"measurement": "binding result", "setting": "[3]", "result": "no binding"}
    ]},
    {"binder": "M2IC-SG2 (bispecific antibody, human IgG1, kappa, structure 2 isotype control; CH2 SG2CH2) EVKLDETGGGLVQPGRPMKLSCVASGFTFSDYWMNWVRQSPEKGLEWVAQIRNKPYNYETYYSDSVKGRFTISRDDSKSSVYLQMNNLRVEDMGIYYCTGSYYGMDYWGQGTSVTVSSASTKGPSVFPLAPSSKSTSGGTAALGCLVKDYFPEPVTVSWNSGALTSGVHTFPAVLQSSGLYSLSSVVTVPSSSLGTQTYICNVNHKPSNTKVDKKVEPKSCDKTHTGGGSAAAQVQLVESGGGVVQPGRSLRLSCAASGFTFSTYAMNWVRQAPGKGLEWVARIRSKYNNYATYYADSVKDRFTISRDDSKNTLYLQMNSLRAEDTAVYYCARHGNFGNSYVSWFAYWGQGTLVTVSSGGGGSGGGGSGGGGSQTVVTQEPSLTVSPGGTVTLTCRSSTGAVTTSNYANWVQQKPGQAPRGLIGGTNKRAPGVPARFSGSLLGGKAALTLSGVQPEDEAEYYCALWYSNLWVFGGGTKVEIKGGGGSDKTHTCPPSPAPPVAGPSVFLFPPKPKDTLMISRTPEVTCVVVDVSHEDPEVQFNWYVDGVEVHNAKTKPREEQFNSTFRVVSVLTVVHQDWLNGKEYKCKVSNKGLPAPIEKTISKTKGQPREPQVYTLPPCRDELTKNQVSLWCLVKGFYPSDIAVEWESNGQPENNYKTTPPVLDSDGSFFLYSKLTVDKSRWQQGNVFSCSVMHEALHNHYTQKSLSLSPGK heavy: EVKLDETGGGLVQPGRPMKLSCVASGFTFSDYWMNWVRQSPEKGLEWVAQIRNKPYNYETYYSDSVKGRFTISRDDSKSSVYLQMNNLRVEDMGIYYCTGSYYGMDYWGQGTSVTVSSASTKGPSVFPLAPSSKSTSGGTAALGCLVKDYFPEPVTVSWNSGALTSGVHTFPAVLQSSGLYSLSSVVTVPSSSLGTQTYICNVNHKPSNTKVDKKVEPKSCDKTHTCPPSPAPPVAGPSVFLFPPKPKDTLMISRTPEVTCVVVDVSHEDPEVQFNWYVDGVEVHNAKTKPREEQFNSTFRVVSVLTVVHQDWLNGKEYKCKVSNKGLPAPIEKTISKTKGQPREPQVCTLPPSRDELTKNQVSLSCAVKGFYPSDIAVEWESNGQPENNYKTTPPVLDSDGSFFLVSKLTVDKSRWQQGNVFSCSVMHEALHNRFTQKSLSLSPGK light: DVVMTQTPLSLPVSLGDQASISCRSSQSLVHSNGNTYLRWYLQKPGQSPKVLIYKVSNRFSGVPDRFSGSGSGTDFTLKISRVEAEDLGVYFCSQSTHVPWTFGGGTKLEIKRTVAAPSVFIFPPSDEQLKSGTASVVCLLNNFYPREAKVQWKVDNALQSGNSQESVTEQDSKDSTYSLSSTLTLSKADYEKHKVYACEVTHQGLSSPVTKSFNRGEC", "values": [
      {"measurement": "EC50", "setting": "[1]", "result": 481, "unit": "nM"},
      {"measurement": "EC50", "setting": "[2]", "result": 525, "unit": "nM"},
      {"measurement": "binding result", "setting": "[3]", "result": "no binding"}
    ]},
    {"binder": "M2IC-PG2 (bispecific antibody, human IgG1, kappa, structure 2 isotype control; CH2 PG2CH2) EVKLDETGGGLVQPGRPMKLSCVASGFTFSDYWMNWVRQSPEKGLEWVAQIRNKPYNYETYYSDSVKGRFTISRDDSKSSVYLQMNNLRVEDMGIYYCTGSYYGMDYWGQGTSVTVSSASTKGPSVFPLAPSSKSTSGGTAALGCLVKDYFPEPVTVSWNSGALTSGVHTFPAVLQSSGLYSLSSVVTVPSSSLGTQTYICNVNHKPSNTKVDKKVEPKSCDKTHTGGGSAAAQVQLVESGGGVVQPGRSLRLSCAASGFTFSTYAMNWVRQAPGKGLEWVARIRSKYNNYATYYADSVKDRFTISRDDSKNTLYLQMNSLRAEDTAVYYCARHGNFGNSYVSWFAYWGQGTLVTVSSGGGGSGGGGSGGGGSQTVVTQEPSLTVSPGGTVTLTCRSSTGAVTTSNYANWVQQKPGQAPRGLIGGTNKRAPGVPARFSGSLLGGKAALTLSGVQPEDEAEYYCALWYSNLWVFGGGTKVEIKGGGGSDKTHTCPPPPAPPVAGPSVFLFPPKPKDTLMISRTPEVTCVVVDVSHEDPEVQFNWYVDGVEVHNAKTKPREEQFNSTFRVVSVLTVVHQDWLNGKEYKCKVSNKGLPAPIEKTISKTKGQPREPQVYTLPPCRDELTKNQVSLWCLVKGFYPSDIAVEWESNGQPENNYKTTPPVLDSDGSFFLYSKLTVDKSRWQQGNVFSCSVMHEALHNHYTQKSLSLSPGK heavy: EVKLDETGGGLVQPGRPMKLSCVASGFTFSDYWMNWVRQSPEKGLEWVAQIRNKPYNYETYYSDSVKGRFTISRDDSKSSVYLQMNNLRVEDMGIYYCTGSYYGMDYWGQGTSVTVSSASTKGPSVFPLAPSSKSTSGGTAALGCLVKDYFPEPVTVSWNSGALTSGVHTFPAVLQSSGLYSLSSVVTVPSSSLGTQTYICNVNHKPSNTKVDKKVEPKSCDKTHTCPPPPAPPVAGPSVFLFPPKPKDTLMISRTPEVTCVVVDVSHEDPEVQFNWYVDGVEVHNAKTKPREEQFNSTFRVVSVLTVVHQDWLNGKEYKCKVSNKGLPAPIEKTISKTKGQPREPQVCTLPPSRDELTKNQVSLSCAVKGFYPSDIAVEWESNGQPENNYKTTPPVLDSDGSFFLVSKLTVDKSRWQQGNVFSCSVMHEALHNRFTQKSLSLSPGK light: DVVMTQTPLSLPVSLGDQASISCRSSQSLVHSNGNTYLRWYLQKPGQSPKVLIYKVSNRFSGVPDRFSGSGSGTDFTLKISRVEAEDLGVYFCSQSTHVPWTFGGGTKLEIKRTVAAPSVFIFPPSDEQLKSGTASVVCLLNNFYPREAKVQWKVDNALQSGNSQESVTEQDSKDSTYSLSSTLTLSKADYEKHKVYACEVTHQGLSSPVTKSFNRGEC", "values": [
      {"measurement": "EC50", "setting": "[1]", "result": 467, "unit": "nM"},
      {"measurement": "EC50", "setting": "[2]", "result": 656, "unit": "nM"},
      {"measurement": "binding result", "setting": "[3]", "result": "no binding"}
    ]}
  ]
}
